# Measurements from patent US11472875.
# T1: CM1-CM2 substrate 2003
# T1 chain: ISSGLLSGRSANPRG
# T2: CM1-CM2 substrate 2005
# T2 chain: AVGLLAPPSGRSANPRG
# B1: human matriptase (protein)
# chain: GSDEKDCDCGLRSFTRQARVVGGTDADEGEWPWQVSLHALGQGHICGASLISPNWLVSAAHCYIDDRGFRYSDPTQWTAFLGLHDQSQRSAPGVQERRLKRIISHPFFNDFTFDYDIALLELEKPAEYSSMVRPICLPDASHVFPAGKAIWVTGWGHTQYGGTGALILQKGEIRVINQTTCENLLPQQITPRMMCVGFLSGGVDSCQGDSGGPLSSVEADGRIFQAGVVSWGDGCAQRNKPGVYTRLPLFRDWIKENTGV
# Columns and labels:
# [1] = target: T1, CM1-CM2 substrate 2003
# [2] = target: T2, CM1-CM2 substrate 2005
# [3] = target: anti-EGFR activatable antibodies comprising substrates 2001, 2006-2010 and 2012
protein,measurement,setting,value
B1,"cleavage kinetics, fold increase as compared to substrate 2001",[1],approximately a 50-fold increase
same,"cleavage kinetics, fold increase as compared to substrate 1004/LP′/0001",[2],approximately a 50-fold increase
same,kcat/Km,[3],a range of kcat/Km values ranging from 6E+02 to 2E+04
